T1: His-tagged recombinant human TNFR1 (human, UniProt P19438 30-211, limits assumed)
T1 construct: also called rhTNFR1; hTNFR1-His; not shown: His tag
T1 sequence (looked up): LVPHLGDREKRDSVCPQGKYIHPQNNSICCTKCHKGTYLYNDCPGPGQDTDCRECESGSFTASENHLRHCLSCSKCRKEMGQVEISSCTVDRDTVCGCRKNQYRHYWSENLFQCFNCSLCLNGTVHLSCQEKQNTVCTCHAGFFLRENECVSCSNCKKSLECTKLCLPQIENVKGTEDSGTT

T2: His-tagged recombinant human TNFR2 (human, UniProt P20333 23-257)
T2 construct: extracellular domain; also called rhTNFR2; hTNFR2-His; not shown: His tag
T2 sequence (looked up): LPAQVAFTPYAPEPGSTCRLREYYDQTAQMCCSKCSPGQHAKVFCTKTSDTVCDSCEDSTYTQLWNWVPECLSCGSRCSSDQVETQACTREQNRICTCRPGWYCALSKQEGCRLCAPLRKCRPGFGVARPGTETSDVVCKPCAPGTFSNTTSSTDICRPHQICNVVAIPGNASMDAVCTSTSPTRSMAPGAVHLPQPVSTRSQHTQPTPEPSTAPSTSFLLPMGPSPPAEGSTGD

T3: human TNFR2 expressed on cells (CHO.hHFB3 / CHO.hTNFR2 cells; primary human T cells) (human, UniProt P20333 23-461)
T3 construct: whole, on cells
T3 sequence (looked up): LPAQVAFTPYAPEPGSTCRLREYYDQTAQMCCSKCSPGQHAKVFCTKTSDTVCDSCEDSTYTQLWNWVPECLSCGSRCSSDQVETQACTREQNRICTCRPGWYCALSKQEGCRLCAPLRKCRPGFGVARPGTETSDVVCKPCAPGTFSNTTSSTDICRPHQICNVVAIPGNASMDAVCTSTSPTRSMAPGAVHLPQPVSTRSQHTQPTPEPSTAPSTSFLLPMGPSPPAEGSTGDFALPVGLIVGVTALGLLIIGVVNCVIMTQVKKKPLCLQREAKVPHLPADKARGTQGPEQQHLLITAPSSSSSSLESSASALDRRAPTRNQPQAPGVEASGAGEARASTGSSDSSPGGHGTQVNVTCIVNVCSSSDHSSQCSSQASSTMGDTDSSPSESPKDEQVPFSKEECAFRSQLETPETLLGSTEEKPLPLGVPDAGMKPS

T4: mouse TNFR2 expressed on CHO cells (mouse, UniProt P25119 23-474)
T4 construct: whole, on cells; also called mouse ortholog
T4 sequence (looked up): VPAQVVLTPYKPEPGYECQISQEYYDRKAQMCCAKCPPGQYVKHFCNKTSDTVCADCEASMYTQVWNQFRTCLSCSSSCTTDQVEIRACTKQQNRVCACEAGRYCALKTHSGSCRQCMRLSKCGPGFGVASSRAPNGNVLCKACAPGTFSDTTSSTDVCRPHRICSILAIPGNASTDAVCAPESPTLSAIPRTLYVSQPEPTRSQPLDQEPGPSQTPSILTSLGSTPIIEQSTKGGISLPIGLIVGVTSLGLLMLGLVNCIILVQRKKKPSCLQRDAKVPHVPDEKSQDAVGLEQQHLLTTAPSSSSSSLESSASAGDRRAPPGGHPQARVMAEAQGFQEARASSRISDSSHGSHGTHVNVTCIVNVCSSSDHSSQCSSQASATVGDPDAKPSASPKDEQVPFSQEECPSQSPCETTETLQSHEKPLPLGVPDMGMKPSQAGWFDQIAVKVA


Experiments:
[1] = biological target: T1, His-tagged recombinant human TNFR1; assay: ELISA on recombinant hTNFR1-His
[2] = biological target: T2, His-tagged recombinant human TNFR2; assay: ELISA on recombinant hTNFR2-His (FIG. 14A)
[3] = biological target: T3, human TNFR2 expressed on cells …; assay: flow cytometry on CHO cells expressing human TNFR2 (FIG. 12A)
[4] = biological target: T2, His-tagged recombinant human TNFR2; assay: ELISA, plate coated with 0.1 µg/mL His-tagged recombinant human TNFR2, HRP anti-human Fc
Procedure: (§1) Briefly, tissue culture plates were coated with either 0.1 μg/mL of His-tagged recombinant human TNFR2 or TNFR1 overnight at 4° C. The coated plates were then incubated for about 1 hour on ice with 1:3 serial dilutions of each test antibodies, with starting (highest) concentration of about 66 nM antibody. Antibodies bound to the cells were detected by using 1:5000 dilution of HRP-labeled anti-human Fc antibody and TMB substrate. Isotype matched negative control antibody F3, as well as the MR2-1 positive control antibody specific for rhTNFR2 and a positive control antibody specific for rhTNFR1 were also used in this assay. The data, including EC₅₀ values for each antibody, were compiled in FIG. 4A.

[5] = biological target: T3, human TNFR2 expressed on cells …; assay: flow cytometry on CHO cells expressing human TNFR2 (CHO.hHFB3), anti-human Fc-AF647 detection
Procedure: (§2) These monoclonal antibodies were then tested for their abilities to bind human and monkey TNFR2 expressed by CHO cells (CHO.hHFB3 and CHO.mkHFB3 cells respectively). Briefly, about 40,000 CHO.hHFB3 or CHO.mkHFB3 cells were seeded in tissue culture wells, and serial 1:3 dilutions of each test antibodies, with starting (highest) concentration of about 66 nM antibody, were added to each cell type and incubated for about an hour. Antibodies bound to the cells were detected by using 17 nM of anti-human Fc antibody labeled by AF647 (ALEXSA FLUOR® 647 fluorescent dye). An isotype matched negative control antibody was also used in this assay. The data, including EC₅₀ values and Eₘₐₓ for each antibody, were compiled in FIG. 2A.

[6] = biological target: T4, mouse TNFR2 expressed on CHO cells; assay: flow cytometry on CHO cells expressing mouse TNFR2
Procedure: as §2
The same experiments were also set up to test the ability of the test antibodies to bind CHO cells expressing mouse TNFR2 and the parental CHO cell lines (which may or may not express hamster TNFR2).

[7] = biological target: T1, His-tagged recombinant human TNFR1; assay: ELISA, plate coated with 0.1 µg/mL His-tagged recombinant human TNFR1
Procedure: as §1

| binding result [1] | binding result [2] | binding result [3] | binding result [4] | binding result [5] | binding result [6] | Binder | binding result [7] |
| --- | --- | --- | --- | --- | --- | --- | --- |
| no binding | – | – | – | – | – | HFB3-14hz1c-hG1 (humanized monoclonal antibody) (antibody, V domains shown, also called HFB3-141c-hG1) VH: QVQLVQSGAEVKKPGSSVKVSCKASGYTFTDYYMNWVRQAPGQGLEWMGDINPNDGGTTYAQKFQGRVTITADESTSTAYMELSSLRSEDTAVYFCAREGNYYAYDVRVWYFDVWGQGTTVTVSS VL: DIQMTQSPSSLSASVGDRVTITCGASQDIITYLNWYQQKPGKAVKLLIYSTSSLNSGVPSRFSGSGSGTDFTLTISSLQPEDFATYYCQQYSELPYTFGGGTKVELKR | – |
| no binding | binds | binds | – | – | – | HFB3-18hz1-hG1 (humanized monoclonal antibody) (antibody, V domains shown) VH: EVQLVESGGGLVQPGGSLKLSCAASGFTFSDAWMDWVRQASGKGLEWVGEVRNKANNHATYYAASVKGRFTISRDDSKNTAYLQMNSLKTEDTAVYYCTRSVGGYGTTYWYFDVWGQGTTVTVSS VL: DIVMTQSPDSLAVSLGERATINCKSSQNLLNSGNQKNYLAWYQQKPGQPPKLLIFGASTRESGVPDRFSGSGSGTDFTLTISSLQAEDVAVYYCQSEHSYPYTFGQGTKLEIKR | – |
| – | – | – | binds | binds | binds | HFB3-18-hG1 (mouse monoclonal antibody) (antibody, human IgG1, kappa, V domains shown, also called human-mouse chimeric monoclonal antibody HFB3-18) VH: EVKLEESGGGLVQPGGSMKLSCAASGFTFSDAWMDWVRQSPEKGLEWVAEVRNKANNHATYYAESVKGRFTISRDDSKSSVYLQMNSLRAEDTGIYYCTRSVGGYGTTYWYFDVWGTGTTVTVSS VL: DIVMTQSPSSLSVSAGEKVTMSCKSSQNLLNSGNQKNYLAWYQQKPGQPPKLLIFGASTRESGVPDRFTGSGSGTDFTLTISSVQAEDLAVYYCQSEHSYPYTFGGGTKLEIKR | no binding (tested: highest concentration about 66 nM) |
| no binding | binds | binds | – | – | – | HFB3-1hz6-hG1 (humanized monoclonal antibody) (antibody, V domains shown) VH: QVQLVQSGAELKKPGASVKVSCKASSYSFTDYNMNWVRQAPGQSLEWMGIIFPKYGTTSYAQKLQGRVTLTTDTSTSTAYMELRSLRSDDTAVYYCATDGGTWYFDVWGTGTTVTVSS VL: DIQLTQSPSFLSASVGDRVTITCRASSSVTYMYWYQQKPGKAPKPWIYLTSNLASGVPSRFSGSGSGTEYTLTISSLQPEDAATYYCQQWSSNPPTFGSGTKLEIKR | – |
| – | – | – | binds | binds | – | HFB3-1-hG1 (mouse monoclonal antibody) (antibody, human IgG1, kappa, V domains shown, also called human-mouse chimeric monoclonal antibody HFB3-1; parental HFB3-1-hG1) VH: EFQLQQSGPELVKPGASVKISCKASSYSFTDYNMNWVKQSNGKSLEWIGIIFPKYGTTSYNQKFKGKATLTVDQSSSTAYMQLNSLTSEDSAVYYCATDGGTWYFDVWGTGTTVTVSS VL: QIVLTQSPALMSASPGEKVTMTCSASSSVTYMYWYQQKPRSSPKPWIYLTSNLASGVPARFSGSGSGTSYSLTISSMEAEDAATYYCQQWSSNPPTFGSGTKLEIKR | no binding (tested: highest concentration about 66 nM) |
